Laboratory results: patent publication US20220177587A1, “METHODS AND USES OF VARIANT CD80 FUSION PROTEINS AND RELATED CONSTRUCTS” (Alpine Immune Sciences, Inc., priority 2018, published 2022)

Columns and labels:
CD28 [1] = molecular target: T1, CD28 (Homo sapiens, UniProt P10747); test: Flow binding to Jurkat/IL2 reporter cells (CD28); design: host or cells: Jurkat cells expressing an IL-2-luciferase reporter; details: for CD28 Fold change to WT CD80: MFI at 33.3 nM relative to CD80 WT IgV-Fc
Description: Binding of selected immunomodulatory fusion proteins to cognate binding partners was assessed. […] Cells were sorted in a Bio-Rad S3 Cell Sorter (Bio-Rad Corp., USA) to >98% purity. Jurkat/IL2 reporter cells, which endogenously express CD28, were used to detect binding to CD28.
For staining and analysis by flow cytometry, 100,000 cells of appropriate transfected cells were plated in 96-well round bottom plates. Cells were spun down and resuspended in staining buffer (phosphate buffered saline (PBS), 1% bovine serum albumin (BSA), and 0.1% sodium azide) for 20 minutes to block non-specific binding. […] Primary staining was performed on ice for 45 minutes, before washing cells in staining buffer twice. Phycoerythrin (PE)-conjugated anti-human Fc (Jackson ImmunoResearch, USA) was diluted 1:150, added to cells and incubated another 30 minutes on ice. Cells were then washed twice with 150 μL/well stain buffer, fixed in 2% formaldehyde/PBS, and analyzed on Intellicyt flow cytometer (Intellicyt Corp., USA). PE Mean Fluorescence Intensity (MFI) was calculated for each cell type with FlowJo Version 10 software (FlowJo LLC, USA).
Binding assays were carried out to assess the specificity and affinity of multivalent proteins to cell-expressed CTLA-4, CD28, and PD-L1 counter structures.
The EC50 for binding also was determined.

CD28 [2] = molecular target: T1, CD28; test: Jurkat/IL2 + CHO/OKT3 +/- PD-L1 reporter assay: PD-L1-dependent CD28 costimulation; type: cell-based; design: host or cells: Jurkat cells expressing an IL-2-luciferase reporter; details: Table E12; Jurkat/IL2 + CHO/OKT3/PD-L1; 5.0 nM
Summary of the method: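 Readout is relative luminescence from lysed cocultures: test protein given 15 min at room temperature to Jurkat cells before adding CHO artificial APCs displaying OKT3 alone or OKT3 plus PD-L1, then 5 h at 37 °C, 5% CO2.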

huCTLA4 = huCTLA4 (Homo sapiens, UniProt P16410); test: Flow binding to CHO cells stably expressing CTLA4; design: huCTLA4 and huPD-L1, full-length mammalian surface expression constructs were generated; expressed in transfected cells; host or cells: CHO cells, lentiviral transduction, sorted to >98% purity; details: for CTLA4 MFI at 33.3 nM: CHO cells stably expressing CTLA4; for CTLA4 Fold change to WT CD80: MFI at 33.3 nM relative to CD80 WT IgV-Fc
Summary of the method: (§1)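 Binding EC50 and PE mean fluorescence intensity derived by flow cytometry using PE-labelled anti-human Fc secondary. Target cells were CTLA4- or PD-L1-transfected CHO lines and CD28-expressing Jurkat/IL2 reporter cells, stained with fusion proteins on ice for 45 min following BSA blocking.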

huPD-L1 = huPD-L1 (Homo sapiens, UniProt Q9NZQ7); test: Flow binding to CHO cells stably expressing PD-L1; design: huCTLA4 and huPD-L1, full-length mammalian surface expression constructs were generated; expressed in transfected cells; host or cells: CHO cells, lentiviral transduction, sorted to >98% purity; details: for PD-L1 MFI at 33.3 nM: CHO cells stably expressing PD-L1; for PD-L1 Fold change to WT CD80: MFI at 33.3 nM relative to CD80 WT IgV-Fc; for Ratio of PDL1:CD28: ratio of MFI at 33.3 nM
Summary of the method: as §1

[3] = Table E10, 33.3 nM, Jurkats (CD28)
[4] = Table E19, Jurkats (CD28), 33.3 nM
[5] = Table E20, Jurkats (CD28), 33.3 nM
[6] = Table E23, CD80 IgV-Fc (inert) at 33.3 nM, Jurkat (CD28)
[7] = Table E23, CD80 IgV-Fc (inert) at 33.3 nM

huCTLA4, sequence (P16410 36-223): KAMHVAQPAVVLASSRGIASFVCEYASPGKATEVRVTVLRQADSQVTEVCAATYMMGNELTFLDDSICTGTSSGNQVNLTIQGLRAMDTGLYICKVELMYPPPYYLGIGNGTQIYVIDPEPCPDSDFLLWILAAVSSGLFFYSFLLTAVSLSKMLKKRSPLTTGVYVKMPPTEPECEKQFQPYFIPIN
huPD-L1, sequence (Q9NZQ7 19-290): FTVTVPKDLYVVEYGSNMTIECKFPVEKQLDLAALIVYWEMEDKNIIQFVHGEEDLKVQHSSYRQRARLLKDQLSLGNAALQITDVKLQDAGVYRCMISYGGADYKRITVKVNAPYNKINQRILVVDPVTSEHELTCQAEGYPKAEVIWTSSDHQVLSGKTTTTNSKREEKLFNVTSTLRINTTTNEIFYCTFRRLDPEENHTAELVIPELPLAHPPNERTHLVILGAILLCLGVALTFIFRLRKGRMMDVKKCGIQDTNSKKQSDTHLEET

B1: E35D/M47V/T62S/L85Q (protein)
chain: VIHVTKEVKEVATLSCGHNVSVEELAQTRIYWQKDKKMVLTMMSGDVNIWPEYKNRTIFDISNNLSIVILALRPSDEGTYECVVQKYEKDAFKREHLAEVTLSVKAD
CD28 [1]; [3]
  CD28 MFI at 33.3 nM: 99.4
CD28 [2]
  Relative Luciferase Units (RLU), CD80 Cone 5.0 nM: 1402 RLU
huCTLA4; Table E10, 33.3 nM
  CTLA4 MFI at 33.3 nM: 31230

B2: E35D/M47V/I61V/L85M (protein)
chain: VIHVTKEVKEVATLSCGHNVSVEELAQTRIYWQKDKKMVLTMMSGDVNIWPEYKNRTIFDVTNNLSIVILALRPSDEGTYECVVMKYEKDAFKREHLAEVTLSVKAD
CD28 [1]; [3]
  CD28 MFI at 33.3 nM: 274
CD28 [2]
  Relative Luciferase Units (RLU), CD80 Cone 5.0 nM: 1176 RLU
huCTLA4; Table E10, 33.3 nM
  CTLA4 MFI at 33.3 nM: 28848

B3: E35D/M47V/L85M/R94Q (protein)
chain: VIHVTKEVKEVATLSCGHNVSVEELAQTRIYWQKDKKMVLTMMSGDVNIWPEYKNRTIFDITNNLSIVILALRPSDEGTYECVVMKYEKDAFKQEHLAEVTLSVKAD
CD28 [1]; [3]
  CD28 MFI at 33.3 nM: 23.7
CD28 [2]
  Relative Luciferase Units (RLU), CD80 Cone 5.0 nM: 466 RLU
huCTLA4; Table E10, 33.3 nM
  CTLA4 MFI at 33.3 nM: 23334

B4: E35D/M47L/V68M/L85Q (protein)
chain: VIHVTKEVKEVATLSCGHNVSVEELAQTRIYWQKDKKMVLTMMSGDLNIWPEYKNRTIFDITNNLSIMILALRPSDEGTYECVVQKYEKDAFKREHLAEVTLSVKAD
CD28 [1]; [4]
  CD28 MFI at 33.3 nM: 159
huCTLA4; Table E19, 33.3 nM
  CTLA4 MFI at 33.3 nM: 28106
huPD-L1; Table E19, 33.3 nM
  PD-L1 MFI at 33.3 nM: 15307

B5: N48K (protein)
chain: VIHVTKEVKEVATLSCGHNVSVEELAQTRIYWQKEKKMVLTMMSGDMKIWPEYKNRTIFDITNNLSIVILALRPSDEGTYECVVLKYEKDAFKREHLAEVTLSVKAD
CD28 [1]; [4]
  CD28 MFI at 33.3 nM: 60.1
huCTLA4; Table E19, 33.3 nM
  CTLA4 MFI at 33.3 nM: 4952
huPD-L1; Table E19, 33.3 nM
  PD-L1 MFI at 33.3 nM: 481

B6: M47V/N48K (protein)
chain: VIHVTKEVKEVATLSCGHNVSVEELAQTRIYWQKEKKMVLTMMSGDVKIWPEYKNRTIFDITNNLSIVILALRPSDEGTYECVVLKYEKDAFKREHLAEVTLSVKAD
CD28 [1]; [4]
  CD28 MFI at 33.3 nM: 413
huCTLA4; Table E19, 33.3 nM
  CTLA4 MFI at 33.3 nM: 44640
huPD-L1; Table E19, 33.3 nM
  PD-L1 MFI at 33.3 nM: 3083

B7: M47V/K89N (protein)
chain: VIHVTKEVKEVATLSCGHNVSVEELAQTRIYWQKEKKMVLTMMSGDVNIWPEYKNRTIFDITNNLSIVILALRPSDEGTYECVVLKYENDAFKREHLAEVTLSVKAD
CD28 [1]; [4]
  CD28 MFI at 33.3 nM: 197
huCTLA4; Table E19, 33.3 nM
  CTLA4 MFI at 33.3 nM: 32381
huPD-L1; Table E19, 33.3 nM
  PD-L1 MFI at 33.3 nM: 622

B8: N48K/V68M (protein)
chain: VIHVTKEVKEVATLSCGHNVSVEELAQTRIYWQKEKKMVLTMMSGDMKIWPEYKNRTIFDITNNLSIMILALRPSDEGTYECVVLKYEKDAFKREHLAEVTLSVKAD
CD28 [1]; [4]
  CD28 MFI at 33.3 nM: 118
huCTLA4; Table E19, 33.3 nM
  CTLA4 MFI at 33.3 nM: 2341
huPD-L1; Table E19, 33.3 nM
  PD-L1 MFI at 33.3 nM: 754

B9: A26E/M47L/V68M/D90G (protein)
chain: VIHVTKEVKEVATLSCGHNVSVEELEQTRIYWQKEKKMVLTMMSGDLNIWPEYKNRTIFDITNNLSIMILALRPSDEGTYECVVLKYEKGAFKREHLAEVTLSVKAD
CD28 [1]; [5]
  CD28 MFI at 33.3 nM: 2583
huCTLA4; Table E20, 33.3 nM
  CTLA4 MFI at 33.3 nM: 21900
huPD-L1; Table E20, 33.3 nM
  PD-L1 MFI at 33.3 nM: 10626

B10: A26E/M47L/V68M/A71G (protein)
chain: VIHVTKEVKEVATLSCGHNVSVEELEQTRIYWQKEKKMVLTMMSGDLNIWPEYKNRTIFDITNNLSIMILGLRPSDEGTYECVVLKYEKDAFKREHLAEVTLSVKAD
CD28 [1]; [5]
  CD28 MFI at 33.3 nM: 98.7
huCTLA4; Table E20, 33.3 nM
  CTLA4 MFI at 33.3 nM: 3227
huPD-L1; Table E20, 33.3 nM
  PD-L1 MFI at 33.3 nM: 1667

B11: H18Y/A26E/M47L/D90G (protein)
chain: VIHVTKEVKEVATLSCGYNVSVEELEQTRIYWQKEKKMVLTMMSGDLNIWPEYKNRTIFDITNNLSIVILALRPSDEGTYECVVLKYEKGAFKREHLAEVTLSVKAD
CD28 [1]; [5]
  CD28 MFI at 33.3 nM: 2858
huCTLA4; Table E20, 33.3 nM
  CTLA4 MFI at 33.3 nM: 23485
huPD-L1; Table E20, 33.3 nM
  PD-L1 MFI at 33.3 nM: 8933

B12: H18Y/A26E/E35D/V68M (protein)
chain: VIHVTKEVKEVATLSCGYNVSVEELEQTRIYWQKDKKMVLTMMSGDMNIWPEYKNRTIFDITNNLSIMILALRPSDEGTYECVVLKYEKDAFKREHLAEVTLSVKAD
CD28 [1]; [5]
  CD28 MFI at 33.3 nM: 372
huCTLA4; Table E20, 33.3 nM
  CTLA4 MFI at 33.3 nM: 20929
huPD-L1; Table E20, 33.3 nM
  PD-L1 MFI at 33.3 nM: 17904

B13: H18I/A26P/E35D/M47V/V68M/A71G (protein, UniProt P33681 35-288, looked up, variant H18I A26P E35D M47V V68M A71G)
T-lymphocyte activation …: VIHVTKEVKEVATLSCGINVSVEELPQTRIYWQKDKKMVLTMMSGDVNIWPEYKNRTIFDITNNLSIMILGLRPSDEGTYECVVLKYEKDAFKREHLAEVTLSVKADFPTPSISDFEIPTSNIRRIICSTSGGFPEPHLSWLENGEELNAINTTVSQDPETELYAVSSKLDFNMTTNHSFMCLIKYGHLRVNQTFNWNTTKQEHFPDNLLPSWAITLISVNGIFVICCLTYCFAPRCRERRRNERLRRESVRPV
CD28 [1]; [6]
  CD28 MFI at 33.3 nM: 2573
CD28 [1]; Table E23
  CD28 Fold change to WT CD80: 25.2
huCTLA4; [7]
  CTLA4 MFI at 33.3 nM: 21923
huCTLA4; Table E23
  CTLA4 Fold change to WT CD80: 15.8
huPD-L1; [7]
  PD-L1 MFI at 33.3 nM: 64919
huPD-L1; Table E23
  PD-L1 Fold change to WT CD80: 393.4
  Ratio of PDL1:CD28: 25.2

B14: H18L/E35D/M47V/V68M/A71G/D90G (protein, UniProt P33681 35-288, looked up, variant H18L E35D M47V V68M A71G D90G)
T-lymphocyte activation …: VIHVTKEVKEVATLSCGLNVSVEELAQTRIYWQKDKKMVLTMMSGDVNIWPEYKNRTIFDITNNLSIMILGLRPSDEGTYECVVLKYEKGAFKREHLAEVTLSVKADFPTPSISDFEIPTSNIRRIICSTSGGFPEPHLSWLENGEELNAINTTVSQDPETELYAVSSKLDFNMTTNHSFMCLIKYGHLRVNQTFNWNTTKQEHFPDNLLPSWAITLISVNGIFVICCLTYCFAPRCRERRRNERLRRESVRPV
CD28 [1]; [6]
  CD28 MFI at 33.3 nM: 6349
huCTLA4; [7]
  CTLA4 MFI at 33.3 nM: 20280
huPD-L1; [7]
  PD-L1 MFI at 33.3 nM: 64761

B15: H18Y/A26P/E35D/M471/V68M/A71G (protein)
chain: VIHVTKEVKEVATLSCGYNVSVEELPQTRIYWQKDKKMVLTMMSGDINIWPEYKNRTIFDITNNLSIMILGLRPSDEGTYECVVLKYEKDAFKREHLAEVTLSVKAD
CD28 [1]; [6]
  CD28 MFI at 33.3 nM: 5125
CD28 [1]; Table E23
  CD28 Fold change to WT CD80: 50.2
huCTLA4; [7]
  CTLA4 MFI at 33.3 nM: 12156
huCTLA4; Table E23
  CTLA4 Fold change to WT CD80: 8.8
huPD-L1; [7]
  PD-L1 MFI at 33.3 nM: 54482
huPD-L1; Table E23
  PD-L1 Fold change to WT CD80: 330.2
  Ratio of PDL1:CD28: 10.6

B16: H18V/A26G/E35D/M47V/V68M/A71G/D90G (protein, UniProt P33681 35-288, looked up, variant H18V A26G E35D M47V V68M A71G D90G)
T-lymphocyte activation …: VIHVTKEVKEVATLSCGVNVSVEELGQTRIYWQKDKKMVLTMMSGDVNIWPEYKNRTIFDITNNLSIMILGLRPSDEGTYECVVLKYEKGAFKREHLAEVTLSVKADFPTPSISDFEIPTSNIRRIICSTSGGFPEPHLSWLENGEELNAINTTVSQDPETELYAVSSKLDFNMTTNHSFMCLIKYGHLRVNQTFNWNTTKQEHFPDNLLPSWAITLISVNGIFVICCLTYCFAPRCRERRRNERLRRESVRPV
CD28 [1]; [6]
  CD28 MFI at 33.3 nM: 8189
huCTLA4; [7]
  CTLA4 MFI at 33.3 nM: 25398
huPD-L1; [7]
  PD-L1 MFI at 33.3 nM: 66198
